# Measurements taken from publication PMC3315329.
# What was measured:
# [1] = target: 40S ribosomal subunits of asc1Δ cells (lacking ASC1) (S. cerevisiae (endogenous in yeast)) (UniProt P32905); assay: cross-linking + co-sedimentation
# [2] = target: 40S ribosomal subunits (wild type) (S. cerevisiae (endogenous in yeast)) (UniProt P38011); assay: cross-linking + co-sedimentation
# Sequence of UniProt P38011 (P38011 whole entry, looked up, tested part not stated): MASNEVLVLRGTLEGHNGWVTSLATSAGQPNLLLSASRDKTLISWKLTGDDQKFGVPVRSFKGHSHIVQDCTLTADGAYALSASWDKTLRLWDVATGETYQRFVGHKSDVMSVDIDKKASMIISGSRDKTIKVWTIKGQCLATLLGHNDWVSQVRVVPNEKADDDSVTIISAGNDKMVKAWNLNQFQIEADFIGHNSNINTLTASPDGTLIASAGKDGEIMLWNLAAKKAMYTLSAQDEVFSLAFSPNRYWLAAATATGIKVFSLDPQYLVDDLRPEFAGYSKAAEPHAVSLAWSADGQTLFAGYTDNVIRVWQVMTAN
# Sequence of UniProt P32905 (P32905 whole entry, looked up, stated change not applied, tested part not stated): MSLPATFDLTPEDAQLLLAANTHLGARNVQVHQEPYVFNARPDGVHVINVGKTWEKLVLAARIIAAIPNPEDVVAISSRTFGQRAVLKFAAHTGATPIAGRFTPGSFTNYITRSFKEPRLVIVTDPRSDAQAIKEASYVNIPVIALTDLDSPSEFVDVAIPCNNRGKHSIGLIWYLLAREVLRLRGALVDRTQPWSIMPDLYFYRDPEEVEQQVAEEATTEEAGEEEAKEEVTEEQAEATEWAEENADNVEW
reduction of the 40S-associated amount relative to wt [1] [%],reduction of the 40S-bound amount in nip1-Δ60 cells relative to wt [2] [%],reduction of the eIF/40S ratio in nip1-743A752 cells relative to wt [2] [%],Substance
50,,,eIF2 (from UniProt P20459 1-304; P09064 1-285; P32481 1-527) (complex)
50,20,60,eIF5 (from UniProt P38431 1-405) (natural protein)
